What was measured:
CB6 monoclonal antibody = experiment: BLI
4A8 monoclonal antibody = experiment: BLI

Q: How did the Kd (CB6 monoclonal antibody) turn out when “SARS-CoV-2 S1-SpyTag monomer (from UniProt P0DTC2 16-685) (domain or fragment)” was run?
A: Its Kd is 5.48 nM.

Q: What about the Kd (4A8 monoclonal antibody) of the same substance?
A: The Kd was 34.1 nM.

Source: publication PMC9278117
